The target of this series is GST-E2f1 (UniProt Q01094). Description: EMSA. Particulars: increasing GST-E2f1, constant probe, EMSA: 20 mM HEPES, 10 mM KCl, 0.2 mM EDTA, 10% glycerol, 5 mM DTT (7 ul Binding Buffer D in 20 ul), 50 ng poly dI:dC, 0.15% NP-40, 1 ug BSA, 5 ug nuclear ….

This is an account of results in paper PMC4686657.

UniProt Q01094, sequence (Q01094 whole entry): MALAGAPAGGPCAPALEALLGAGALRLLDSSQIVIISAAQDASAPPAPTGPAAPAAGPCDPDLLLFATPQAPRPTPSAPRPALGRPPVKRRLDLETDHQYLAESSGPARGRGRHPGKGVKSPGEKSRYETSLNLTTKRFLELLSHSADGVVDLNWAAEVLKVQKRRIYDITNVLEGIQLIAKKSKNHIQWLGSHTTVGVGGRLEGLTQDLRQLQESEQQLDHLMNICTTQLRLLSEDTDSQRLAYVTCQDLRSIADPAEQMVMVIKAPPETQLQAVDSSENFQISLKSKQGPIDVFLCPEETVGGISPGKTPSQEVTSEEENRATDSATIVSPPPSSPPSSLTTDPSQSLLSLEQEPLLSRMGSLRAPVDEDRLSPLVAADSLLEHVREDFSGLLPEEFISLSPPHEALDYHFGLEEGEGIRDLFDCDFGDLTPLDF

Turning to “CAGGCGACAGCGGCGCGGAACGCAG (double strand) [Pfkl probe]”, the binding signal (reference (Pfkl T-stretch is 1.88-fold)) turned out to be 1.

For “CAGGCTTTTTCGGCGCGGAACGCAG (double strand) [Pfkl T-stretch probe]”, the binding signal (scale: fold signal vs Pfkl probe) was found to be 1.88.
